Assay: label from the status in PepcDB records

Sequence | protein production
MWKRMTAKAEGLYIADTKSFVTKQMDKLDFDYGGIPGDLHFGLTKKAGAREPMFSRGTEIFNRRQISIVSIEECNEIALKMGVPRILPEWLGANVAVSGMPDLTSLKEGSRIIFPSGAALLCEGENDPCIQPGEVIQSYYPDQPKLASAFVRHALGIRGIVCIVERPGAVYTGDEIEVHSYQRKVKRKAERV | not failed
MWLSEFEIVLRDRVIPNGAVRIEDGRIAEIRDRPVAHADIDGGGRLLLPGFIDMHGDMVEREVEPRIGVHVPMRIGIAELDKKLASCGITTAYAALSFIGASVTSGVLRSEDHTTEIIDTIAGMKDHLLVDHRTHARFEVTFTPAIPTLQKLMDAGRLDLISLMDHTPGQGQYRDVELYIARIAKERGMSVAAASEVVGKRMAGREGQGNVLNALQDLSARARAAGIVLASHDDDTLEKVELVHGLGAALSEFPVTLEAAQEARRLGMHTAMGAPNALRGESYSGNLSARQAYQAGLLDMLASDYHPASILPAVLGLAELRGDGLAAAAALTSANPANALGLTDRGAVEPGLLADFVVADRYPVPRVRATFRAGRMIYGDGTLALAGKAERLGPVAAERLPAA | failed
MWPFRKEQERGGWLIGWNPHGLLVIVVAVVHDPRVENATAALNKLKESEGDIRATAHRKQHKDVPSATSLLILGWMHSKQATLDKSEYADAWVRSQHSRAELWLELNEGPLLHQLYCCGSPVQPCHLHVLRSDPTVSYAVTSTAFSAVARHDRGDLVKLVEGKMQPICVEGANSTLEGVLLPSHMVHSAGPRTKMRRMVGSDPLTQDEEEKQEGAKQRTEDDRVSVGSSGSGEGSTESQSVRGSETPRFGGELHPRLDFPTSTDYGELSSLLRASAYGKILRELCENKVSNATDGTAATARLCAYWKNCGNRFTGFLTKILVVFHLVLKWPGNVSYTAALLEFRLRMVIHWLLLLRGDTRVCCLHPVLPHIQHNDPALRRFCVVDFLVRFAVDTICGMLLSLLLSHGSGLLVTKAVSWCRWLLYDLHMEYMDWFEGWPAGLKMNGDLSMTLSCIAKAVLEASWASVEDLSNVGLFYKLLIFVAPLGASCAFAFVADLCLIASLHLYLVFHSVSLPYRFARFMLRNLFLQFQGKKHNPLRHRTDTYDFPVEQTLVATVIFTIIVFLLPTLAVYHVYFALICIAVWLLQGALLVAAHLTLYLPLYPLFYWALYRRQWPGGVALTGPKVLSTPQHSRALNPFARGSLTVEFGVVSKPLELRVLLADFLLVAHVVGRLHPFDMIVAVFKVRRWERTNPGKCLVPPLPADIMPLTGMTLPKTAVA | failed
MWPVVALTLFVVTFGFVLGGLVVGGKVQARPVSFLLFSGLFLFSSFFGMLVSLFTTGWFPFRLLDVVIVALCFVFIVSCFMRFHPTFGFFQFDGRANMILFAVISFFLGLQLGMLGWRTFFILFLALVFTAGLFAGGVFQVRAVMKFYSRQPSFHFLPLIWLLFATVLKLL | failed
MWSCPTLNAPRAAQKWLPVRATPHLCVLHMSRLMLSSTLIDELSYVRKDQLETSALFELIAHRYERHSIAITANEPFSGWSDAMTVAAIDRLVHHSTIIEMNGESYRKRAAVARGASTQNANDEPEDPPNRSSLEHHHHHH | failed
MWSGVVTERKISRRLRLIKRVREEYVRDDVSCGFECCGGPCRASGKASVFAIPDANVVSRYRALLKSDYVAAIICQSVLSELSKNDERGLRDVARERGYPVFCDSFCRSTHGKGLEGVLEFYRAHLPQHNFTILDIGNIGEYGRYVSDDIRDLLENVDEKEATEYEEYVENLDILYGRKGLYRGTLEVSMYNCYSGFVVDGDVKVLVVGKKNMNRALSGDEVYVEVVDEYDEDGILLDNEEGTQETRKGAAGEGVFGKVVGIHRRKCRAVIGSISPRTVHGDGAQNVLVIPIDRRIPAIRIRTSQAEELMNKRLCVEIDGWERTSNYPSGHYYRRLGTLGDRNAEMEAVLVANGITYYNKNWAEILRVPWMNEDIFGMEKAYNEVREGTREDFRELSIVSIDPPDCEDIDDALHCRLLPNGNWEVGVHIADVTYYVTKGSEIDKIAADRGTTIYLPEWRIDMLPPALSTDLCSLVAGKDRAAFSVVWEMSSDVRVVRTHFCRSLIRSKRSFSYNEAYDAVQGLVDAGDEVSRSLRMLLEISRVLRSRRFAKGSLDLSTRQLVFREGGFEMKEYFPTNFLVEEFMVLANISVASFIYHHHPDSSLLRKHPPPSVLDIGLDIDTSSPRALSESLEKMEGVRKDLAKRMLIRSMNQAVYVVSGETPSLHHYGLATPIYTHFTSPIRRYADIIVHRILNHILQTAPTKEAQINKLGIVTFRARKRTDGESMDEVFVDEDMCRNMNSRHRAARKAAWECDKLTVYMALRNEEPVVRGFVTNIKPNGIVVYVPEYSLEEVVVSEGCFEMFQEVWVKIRRDDEKFFLRRRFTFEIVGLSSPC | failed
MWYDYRFCAYPDRTGVAAEAERHIDIHRQAYNHTRYEYNALDTDEDNIGSAYQHQKRLTEWKDEWSVFSEVHSKALQKTVERFYDNLSNLSEKKQNGHKVGWLKWKPPREYQSVTYSQSGFELKNTSGRTATLWLSKIGDIPIRYHRPIPDNATIKEVTLKKETTGEWYVTFGLEVEDTTLPEKPDVDDLDAEDCVGIDLGITNYIYTSDGDSVDWLNLSDEYERLRREQRNLSRKEHRSNNWKKQRREVAKVKRRIKRKVEDFQHKLTTWLVKTYDAVFVEDLNVSGMLQQRGNARNKQDAAWRGFINMLEYKGDLYGTHVVQVNPAGTTKECAECGVETEKPLWVREHSCPSCGFEADRDANASYNVLSRGLRELGLGQAEVTPVETATAVETDGGRSSSVPASRVIETGSLGVVRKTESSVMTRDEVPRTT | failed
MWYSTVRNPSIALIKQGYHILAEYNLVKEELKNIYAIPSYACGLHWFGVIFVHSGIYAGSVFRFSILLPENFPADISLPTVVFSTEVLHPHICPQNKTLDLAHFLNEWRKDEHHIWHVLRYIQAIFADPEGSICTGQSSSGDLVIMDEVRNMNALNMLAKSRPEYIKRVQEQAILSRNLIYDRPPTEDPHYIIVEPYCAERHLKFMDQLKSPCWKEATSMDCSQPSEYLGHIDSSRQLDEEEANQVEKLHRGRIPEHQREESEVSL | failed
MYAPERQQEILRLARDGGRVDVVSLAEEFQVTAETIRRDLKALDRAGLLRRVHGGAIPAGRLDFEPDLAERESTAADEKDRIARAALAELPAEGTLILDAGSTVARMAAAIPPDASLTVVTHSLPIAARLADHPGIQLHIVGGRVRHRTRAAVDAWALRAYGEIRADVAVVAANGFSVEHGLTTPDLAEAAVKRAALTAARRVVLLADSSKYAQEHFARFGALGDVDLLITDQGLTPEDAGDIERAGTEVVRA | failed
MYEIPWSKPVNINMLDGRCRTVVGPLDAMHCLQSEWPVRDGAYYGCAIRACNAALKRRKRPEDARAAFIAALREAFLTVVPMQEEGHGPRPLE | not failed
MYFVDRSKIEKTLGFFEHQLALFDSQTDWQSEIGELALQRIGHLLIECILDTGNDMIDGFIMRDPGSYDDIMDILVDEKVVTEKEGDELKKLIAYRKTLVQQYLLADSGELYRLIKAHQTALQDFPKRIRSYLETELGPVSAFK | not failed
MYGGIYVNNGYSPMSSNQQNVSVEHDIIMRGRRVIDITGVKQVESFDSEEFLLETVMGFLTIRGQNLQMKNLDVEKGVVSIKGKVHEMLYIDENQGEKTKGFFSKLFKLEHHHHHH | not failed
MYIHLGDDFVVSTREIVAIFDYKAKTSPIVEEFLSKQKQRIVSSNSTPKSIVVTLQSIYFSPLASGTLKKRAQSKPEIDSLEHHHHHH | failed
MYIICSQFSASEPVNPYALLGAAIVSELLGTTSLKLSEGFSRPVPSLGVVVGYGLAFYLVSLTLEDLPIGVVYGTWAALGIVGVAAIGIVVFDEPIDLPGAVGILLIIIGVYCVNVLSEMSAH | failed
MYKILEKKEIAMRNTWYKVYAPHVAKKVQPGQFVIVRAFPNGERIPLTPVMWDREEGWIVLIVFTRGKTTMRMAVELKEGDSLLNVAGPLGTPVPMEKFGKILAIGAYTGIVEVYPIAKAWQEIGNDVTTLHVTFEPMVILKEELEKAVTRHIVEPVPLNPNQDFLANMKNVSQRLKEKVRELLESEDWDLVFMVGPVGDQKQVFEVVKEYGVPMKVDLHPIMVDGTGMCGACRVTVGGEVKFACVDGPEFDAYQVDWDELIHRVGFYAKLEKLALEKYMEELKAKGVILEHHHHHH | failed
MYKNILILGRGIGQVMFQNNALSGGLMLLGIAFNSWQLAVLSVLGTVVSTLTASLSGYDKEDIRNGLYGFNGTLVGIAIGVFMEINVTSILLLISGSAFSTWVARCFRYQNRVSGLTAPFIFVVWLLLVGCHYLYPSLLLSSSLEKPELTMDIFRSFCLNIGQVMFQGNILSGLFFLLGILINSRMNALYTLTGAILPLFMILYPHTDLAAWNLGLLGYNGVLCAIALGDKTGIGVVKAIFSIILSIVLQLTGMHMGIVTLTAPFVFSVWITGGLFSVFRSKS | failed
MYLEKINSPEDVKKLSIDEMKDLSTEIREVLLKKLSEHGGHIGPNLGIVELTIALHYVFNSPKDKIVYDVSHQSYIHKMLTGRKEAFINSEKYDEVSGYSNPEESEHDFFNIGHTSTSISLACGLAKARDVKDETDNVIAIIGDGSLSGGEAYEGLNNAAETGTNMIIIVNDNDMSIAENHGGLYKNLKELRDTEGKSECNFFKAMGLDYHYVKDGHDLEQLIGVFNKVKDTKQPVVVHIHTVKGKGFKFAEKNKEQWHWGMPFVLETGASKVSMGSAENYGNLTGEYLLDYMKRDPKVVAITSGTPAVFGFWKERRNEAGRQFVDVGIAEEHAVALASGIAANGGNPVYGVYSTFLQRTYDQLSQDLCINNNPAVLLVFAASVYGMNDVTHLGLYDIGMMSNIPNMVYLAPTCKEEYFAMLKWAMIQKDHPVAIRVPAMGVIESGVVDNTDYSKLNKYEVTKAGKDVAVIALGDFYQLGQSVTEKLSQENGINATLINPKYITGIDEELLEGLKKEHKLVITLEDGILDGGFGEKIARYYGASDMKVLNYGIKKELLDRYVPDELMKKNRLTDVQIVEDIMNIIK | failed
MYLKELSMMPGVSGDEGKVRDFIKSKIEGLVDNLYTDVLGNLIALKRGRDSSKKLLVSAHMDEVGFVVSKIEKDGKVSFLPVGGVDPRILPGKVVQVKNLKGVIGYRPIHLQRDEENTPPRFENLRIDFGFSSADEAKKYVSIGDYVSFVSDYIEKNGRAVGKAFDDRAGCSVLIDVLESGVSPAYDTYFVFTVQEETGLRGSAVVVEQLKPTCAIVVETTTAGDNPELEERKWATHLGDGPAITFYHRGYVIPKEIFQTIVDTAKNNDIPFQMKRRTAGGTDAGRYARTAYGVPAGVISTPARYIHSPNSIIDLNDYENTKKLIKVLVEEGKIVEVVS | not failed
MYLPTHFKQENQAELFDLIEHHPLGTLIVMHADGLEVNHIPFELDRLHLPAGILRGHIAKANPLASLLSEPQSAYVIFQAEQHYISPNWYPGKQEHHRVVPTWNYRVVHATGQLSVIEDQKYLRGVLARLTRQHEADQPAPWRLSDAPADFIEQQLEKIMAIEFNIESIIGKFKLSQN | failed
MYLPTHFKQENQAELFDLIEHHPLGTLIVMHADGLEVNHIPFELDRLHLPAGILRGHIAKANPLASLLSEPQSAYVIFQAEQHYISPNWYPGKQEHHRVVPTWNYRVVHATGQLSVIEDQKYLRGVLARLTRQHEADQPAPWRLSDAPADFIEQQLEKIMAIEFNIESIIGKFKLSQNRSQADVAGVIAALNELEPQIANSIHKFYPK | failed
MYLTCRFEESKSAEKAVVALEESTSGEPKTPTESHEKLRKVRSDQGSSTTSSNQENIGSSSVSFRNQVLQSTVTNQKQDSPIPVESNREKAASKEVEAGSQSTNEGIAGQSSSTEKPKEEESAKQRWSRSQREAALMKFRLKRKDRCFDKKHLKQIQDQTDSMEMYKNGLQVRYQSRKKLAEQRPRVKGQFVRTVNSDASTKS | failed
